In patent KR20230010676A (dated 2023):

Key:
Test in all cases: cell-based or functional assay
SARS-CoV-2 S N501Y = SARS-CoV-2 S N501Y (SARS-CoV-2, UniProt P0DTC2 14-1273)
SARS-CoV-2 S S477N = SARS-CoV-2 S S477N (SARS-CoV-2, UniProt P0DTC2 14-1273)
SARS-CoV-2 S N439K = SARS-CoV-2 S N439K (SARS-CoV-2, UniProt P0DTC2 14-1273)
SARS-CoV-2 S L452R = SARS-CoV-2 S L452R (SARS-CoV-2, UniProt P0DTC2 14-1273)
SARS-CoV-2 S E484K = SARS-CoV-2 S E484K (SARS-CoV-2, UniProt P0DTC2 14-1273)
SARS-CoV-2 S K417N = SARS-CoV-2 S K417N (SARS-CoV-2, UniProt P0DTC2 14-1273)
SARS-CoV-2 S T478K = SARS-CoV-2 S T478K (SARS-CoV-2, UniProt P0DTC2 14-1273)
SARS-CoV-2 S S494P = SARS-CoV-2 S S494P (SARS-CoV-2, UniProt P0DTC2 14-1273)
SARS-CoV-2 S A520S = SARS-CoV-2 S A520S (SARS-CoV-2, UniProt P0DTC2 14-1273)
SARS-CoV-2 S N501T = SARS-CoV-2 S N501T (SARS-CoV-2, UniProt P0DTC2 14-1273)
SARS-CoV-2 S A522S = SARS-CoV-2 S A522S (SARS-CoV-2, UniProt P0DTC2 14-1273)
SARS-CoV-2 S Y453F = SARS-CoV-2 S Y453F (SARS-CoV-2, UniProt P0DTC2 14-1273)
SARS-CoV-2 S P384L = SARS-CoV-2 S P384L (SARS-CoV-2, UniProt P0DTC2 14-1273)

Measured: S2E12의 중화 감소 (배)

B1: S2E12 (antibody, V domains shown)
VH: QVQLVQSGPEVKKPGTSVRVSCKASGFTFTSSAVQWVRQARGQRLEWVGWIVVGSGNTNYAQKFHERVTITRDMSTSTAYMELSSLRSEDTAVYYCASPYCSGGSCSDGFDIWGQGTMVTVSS
VL: DIVLTQTPGTLSLSPGERATLSCRASQSVSSSYLAWYQQKPGQAPRLLIYGASSRATGIPDRFSGSGSGTDFTLTISRLEPEDFAVYYCQQYVGLTGWTFGQGTKVEIK
notes: also called S2E12 WT; S2E12 wt
< 3 배: SARS-CoV-2 S N501Y | SARS-CoV-2 S S477N | SARS-CoV-2 S N439K | SARS-CoV-2 S L452R | SARS-CoV-2 S E484K | SARS-CoV-2 S K417N | SARS-CoV-2 S T478K | SARS-CoV-2 S S494P | SARS-CoV-2 S A520S | SARS-CoV-2 S N501T | SARS-CoV-2 S A522S | SARS-CoV-2 S Y453F | SARS-CoV-2 S P384L
